System: Lenti-X 293T cells
Test: YFP fluorescence quenching anion reporter plate reader assay of engineered receptors stimulated with acetylcholine or a non-native ligand
Assay type: cell-based
Details: for percent quench of YFP fluorescence, 30 nM TC-6683: TC-6683 30 nM; for percent quench of YFP fluorescence, 300 nM TC-6683: TC-6683 300 nM; for percent quench of YFP fluorescence, 3 uM TC-6683: TC-6683 3 uM; for percent quench of YFP fluorescence, 30 uM TC-6683: TC-6683 30 uM; for percent quench of YFP fluorescence, 100 uM TC-6683: TC-6683 100 uM; for percent quench of YFP fluorescence, 10 uM ach: acetylcholine 10 uM; for percent quench of YFP fluorescence, 100 uM ach: acetylcholine 100 uM; for percent quench of YFP fluorescence, 1 mM ach: acetylcholine 1 mM; for percent quench of YFP fluorescence, 3 mM ach: acetylcholine 3 mM
Procedure, shortened: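 YFP quench was followed for about 1 min 43 s after ligand delivered in iodide-based ECS, pH 7.2. Values are end-of-read fluorescence (last 10 s) divided by the pre-ligand baseline (15 s). Cells were LX293T, transfected with receptor DNA a day before the assay.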

B1: CODA965: engineered chimeric LGIC receptor, Y140C in SEQ ID NO: 33 (protein)
chain: MRCSPGGVWLALAASLLHVSLQGEFQRKLYKELVKNYNPLERPVANDSQPLTVYFSLSLLQIMDVDEKNQVLTTNIWLQMSWTDHYLQWNVSEYPGVKTVRFPDGQIWKPDILLYNSADERFDATFHTNVLVNSSGHCQCLPPGIFKSSCPMDLKNFPMDVQTCKLKFGSWSYGGWSLDLQMQEADISGYIPNGEWDLVGIPGKRSERFYECCKEPYPDVTFTVTMRRRMGYYLIQMYIPSLLIVILSWISFWINMDAAPARVGLGITTVLTMTTQSSGSRASLPKVSYVKAIDIWMAVCLLFVFSALLEYAAVNFVSRQHKELLRFRRKRRHHKSPMLNLFQEDEAGEGRFNFSAYGMGPACLQAKDGISVKGANNSNTTNPPPAPSKSPEEMRKLFIQRAKKIDKISRIGFPMAFLIFNMFYWIIYKIVRREDVHNQ
modifications: synthetic sequence of chimeric LGIC
YFP fluorescence quenching using CNL001 (1 nM CNL001, first column): −12.765% | YFP fluorescence quenching using CNL001 (1 nM CNL001, second column): −12.608% | YFP fluorescence quenching using TC-5619/Bradanicline (3 nM brd): −18.49% | YFP fluorescence quenching using Varenicline (3 nM var, first column): −17.716 | YFP fluorescence quenching using Varenicline (3 nM var, second column): −23.019 | YFP fluorescence quenching using CNL001 (10 nM CNL001, first column): 68.134% | YFP fluorescence quenching using CNL001 (10 nM CNL001, second column): 71.394% | YFP fluorescence quenching using TC-5619/Bradanicline (30 nM brd): 22.66% | YFP fluorescence quenching using Facinicline (30 nM fac): −12.29 | YFP fluorescence quenching using Varenicline (30 nM var, first column): −14.993 | YFP fluorescence quenching using Varenicline (30 nM var, second column): −12.182 | YFP fluorescence quenching using CNL001 (50 nM CNL001, first column): 80.298% | YFP fluorescence quenching using CNL001 (50 nM CNL001, second column): 82.159% | YFP fluorescence quenching using ABT-126 (50 nM abt): −10.75% | YFP fluorescence quenching using CNL001 (100 nM CNL001, first column): 82.404% | YFP fluorescence quenching using CNL001 (100 nM CNL001, second column): 82.14% | YFP fluorescence quenching using CNL002 (100 nM CNL002): 43.24% | YFP fluorescence quenching using ABT-126 (100 nM abt): −4.11% | YFP fluorescence quenching using AZD-0328 (100 nM azd0328): −16.69% | YFP fluorescence quenching using ABT-126 (300 nM abt): 18.93% | YFP fluorescence quenching using AZD-0328 (300 nM azd0328): 1.3% | YFP fluorescence quenching using TC-5619/Bradanicline (300 nM brd): 38.02% | YFP fluorescence quenching using Facinicline (300 nM fac): 20.11 | YFP fluorescence quenching using Varenicline (300 nM var, first column): −11.731 | YFP fluorescence quenching using Varenicline (300 nM var, second column): −10.13 | YFP fluorescence quenching using Varenicline (500 nM var, first column): −12.518 | YFP fluorescence quenching using Varenicline (500 nM var, second column): −15.043 | YFP fluorescence quenching using CNL001 (1 uM CNL001, first column): 82.34% | YFP fluorescence quenching using CNL001 (1 uM CNL001, second column): 80.649% | YFP fluorescence quenching using CNL002 (1 uM CNL002): 42.72% | YFP fluorescence quenching using ABT-126 (1 uM abt): 52.64% | YFP fluorescence quenching using TC-6987 (1 uM tc6987): 2.73 | YFP fluorescence quenching using Varenicline (1 uM var, first column): −13.385 | YFP fluorescence quenching using Varenicline (1 uM var, second column): −17.022 | YFP fluorescence quenching using TC-6987 (10 uM tc6987): 30.37 | YFP fluorescence quenching using CNL002 (30 uM CNL002): 51.43% | YFP fluorescence quenching using AZD-0328 (30 uM azd0328): 21.78% | YFP fluorescence quenching using Facinicline (30 uM fac): 37.62 | YFP fluorescence quenching using TC-6987 (500 uM tc6987): 33.07 | percent quench of YFP fluorescence, 30 nM TC-6683: −8.21% | percent quench of YFP fluorescence, 300 nM TC-6683: −16.37% | percent quench of YFP fluorescence, 3 uM TC-6683: −19.48% | percent quench of YFP fluorescence, 30 uM TC-6683: −24.32% | percent quench of YFP fluorescence, 100 uM TC-6683: −24.99% | percent quench of YFP fluorescence, 10 uM ach: −21.71% | percent quench of YFP fluorescence, 100 uM ach: 3.49% | percent quench of YFP fluorescence, 1 mM ach: 63.34% | percent quench of YFP fluorescence, 3 mM ach: 51.92%

B2: CODA952: engineered chimeric LGIC receptor, Y140I in SEQ ID NO: 33 (protein)
chain: MRCSPGGVWLALAASLLHVSLQGEFQRKLYKELVKNYNPLERPVANDSQPLTVYFSLSLLQIMDVDEKNQVLTTNIWLQMSWTDHYLQWNVSEYPGVKTVRFPDGQIWKPDILLYNSADERFDATFHTNVLVNSSGHCQILPPGIFKSSCPMDLKNFPMDVQTCKLKFGSWSYGGWSLDLQMQEADISGYIPNGEWDLVGIPGKRSERFYECCKEPYPDVTFTVTMRRRMGYYLIQMYIPSLLIVILSWISFWINMDAAPARVGLGITTVLTMTTQSSGSRASLPKVSYVKAIDIWMAVCLLFVFSALLEYAAVNFVSRQHKELLRFRRKRRHHKSPMLNLFQEDEAGEGRFNFSAYGMGPACLQAKDGISVKGANNSNTTNPPPAPSKSPEEMRKLFIQRAKKIDKISRIGFPMAFLIFNMFYWIIYKIVRREDVHNQ
modifications: synthetic sequence of chimeric LGIC
YFP fluorescence quenching using CNL001 (1 nM CNL001, first column): 0.368% | YFP fluorescence quenching using CNL001 (1 nM CNL001, second column): −1.976% | YFP fluorescence quenching using TC-5619/Bradanicline (3 nM brd): −2.45% | YFP fluorescence quenching using Varenicline (3 nM var, first column): −22.522 | YFP fluorescence quenching using Varenicline (3 nM var, second column): −18.173 | YFP fluorescence quenching using CNL001 (10 nM CNL001, first column): −3.923% | YFP fluorescence quenching using CNL001 (10 nM CNL001, second column): 4.348% | YFP fluorescence quenching using TC-5619/Bradanicline (30 nM brd): 66.97% | YFP fluorescence quenching using Facinicline (30 nM fac): −8.83 | YFP fluorescence quenching using Varenicline (30 nM var, first column): −15.306 | YFP fluorescence quenching using Varenicline (30 nM var, second column): −12.832 | YFP fluorescence quenching using CNL001 (50 nM CNL001, first column): 74.107% | YFP fluorescence quenching using CNL001 (50 nM CNL001, second column): 75.866% | YFP fluorescence quenching using ABT-126 (50 nM abt): −12.34% | YFP fluorescence quenching using CNL001 (100 nM CNL001, first column): 80.323% | YFP fluorescence quenching using CNL001 (100 nM CNL001, second column): 81.996% | YFP fluorescence quenching using CNL002 (100 nM CNL002): 32.58% | YFP fluorescence quenching using ABT-126 (100 nM abt): −11.57% | YFP fluorescence quenching using AZD-0328 (100 nM azd0328): −12.96% | YFP fluorescence quenching using ABT-126 (300 nM abt): −5.21% | YFP fluorescence quenching using AZD-0328 (300 nM azd0328): −13.21% | YFP fluorescence quenching using TC-5619/Bradanicline (300 nM brd): 78.48% | YFP fluorescence quenching using Facinicline (300 nM fac): 51.6 | YFP fluorescence quenching using Varenicline (300 nM var, first column): −14.671 | YFP fluorescence quenching using Varenicline (300 nM var, second column): −17.016 | YFP fluorescence quenching using Varenicline (500 nM var, first column): −16.713 | YFP fluorescence quenching using Varenicline (500 nM var, second column): −18.893 | YFP fluorescence quenching using CNL001 (1 uM CNL001, first column): 83.489% | YFP fluorescence quenching using CNL001 (1 uM CNL001, second column): 82.208% | YFP fluorescence quenching using CNL002 (1 uM CNL002): 69.08% | YFP fluorescence quenching using ABT-126 (1 uM abt): 3.93% | YFP fluorescence quenching using TC-6987 (1 uM tc6987): 6.03 | YFP fluorescence quenching using Varenicline (1 uM var, first column): −15.847 | YFP fluorescence quenching using Varenicline (1 uM var, second column): −16.236 | YFP fluorescence quenching using TC-6987 (10 uM tc6987): 2.25 | YFP fluorescence quenching using CNL002 (30 uM CNL002): 73.28% | YFP fluorescence quenching using AZD-0328 (30 uM azd0328): 68.5% | YFP fluorescence quenching using Facinicline (30 uM fac): 71.01 | YFP fluorescence quenching using TC-6987 (500 uM tc6987): −0.24 | percent quench of YFP fluorescence, 30 nM TC-6683: −27.7% | percent quench of YFP fluorescence, 300 nM TC-6683: −26.87% | percent quench of YFP fluorescence, 3 uM TC-6683: −31.2% | percent quench of YFP fluorescence, 30 uM TC-6683: −33.12% | percent quench of YFP fluorescence, 100 uM TC-6683: −24.67% | percent quench of YFP fluorescence, 10 uM ach: −1.97% | percent quench of YFP fluorescence, 100 uM ach: 2.79% | percent quench of YFP fluorescence, 1 mM ach: 58.81% | percent quench of YFP fluorescence, 3 mM ach: 66.9%
